Laboratory results from PMC8084299, “Peculiarities of the Presentation of the Encephalitogenic MBP Peptide by HLA-DR Complexes Providing Protection and Predisposition to Multiple Sclerosis” (Acta Naturae, 2021).

Target: HLA-DR15 (HLA-DRB1*1501) (Homo sapiens, UniProt P01903+P01911)
Assay: Competitive ELISA against biotinylated pp65 (pp65bio) for binding to HLA-DR
Conditions: pp65bio 150 nM, HLA-DR15 150 nM, non-biotinylated competitor 7.8 nM - 1 μM, HLA-DM 150 nM, PBS, 37°C, 18 h, triplicate, ± SD, read-out: IC50 in competition with pp65bio for HLA-DR15

- IC50: 0.12 ± 0.02 µM
Substance: MBP85-97: myelin basic protein peptide 85-97 fused to C-terminus of bacterial thioredoxin through (SGGGG)3S linker with His-tags (PVVHFFKNIVTPR; not fully specified; C-terminal fusion to thioredoxin via (SGGGG)3S linker (left out))
